The RNAGym collection of RNA variant scans (doi:10.1093/molbev/msab373)

B1: Azoarcus group I ribozyme (parent)
chain: GUGCCUUGCGCCGGGAAACCACGCAAGGGAUGGUGUCAAAUUCGGCGAAACCUAAGCGCCCGCCCGGGCGUAUGGCAACGCCGAGCCAAGCUUCGGCGCCUGCGCCGAUGAAGGUGUAGAGACUAGACGGCACCCACCUAAGGCAAACGCUAUGGUGAAGGCAUAGUCCAGGGAGUGGCGAAAGUCACACAAACCGG

Variants of: B1
Assay: reverse-splicing fitness (ratio to wild type); higher = more active; in vitro selection; Mg2+ level not given
Procedure, shortened: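 An in vitro group I ribozyme library with randomized positions was T7-transcribed and gel-purified. In triplicate, 10 pmol RNA in EPPS pH 7.5 was reacted with 50 pmoles of a 30-nt RNA substrate for 1 h at 37 °C across several added MgCl2 levels (1–48 mM), then stopped with EDTA. Products were reverse transcribed from a substrate-complementary primer, PCR-amplified and sequenced (HiSeq 4000). Fitness is a variant's read proportion after selection over that before, normalised to wild type.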

In order of rising reverse-splicing fitness:
1. GUGCCUUGCGCCGGGAAACCACGCAAGGGAUGGUGUCAAAUUCGGCGAAACCUAAGCGCCCGCCCGGGCGUAUGGCAACGCUGAGCCAAGCUUCGGCGCCUGCGCCGAUGCAGGUGUAGUGACUAGACGGCACCCACCUAAGGCCAACGCUAUGGUGAAGGCAUAGUCAAGGGAGGGGCGAAAGUCACACAAACCGG [C82U A111C A120U A145C C169A U176G]  0.0017
2. GUGCCUUGCGCCGGGAAACCACGCAAGGGAUGGUGUCAAAUUCGGCGAAACCUAAGCGCCCGCCCGGGCGUAUGGCAACGCUGAGCCAAGCUUCGGCGCCUGCGCCGAUGCAGGUGUAGUGACUAGACGGCACCCACCUAAGGCCAACGCUAUGGUGAAGGCAUAGUCGAGGGAGGGGCGAAAGUCACACAAACCGG [C82U A111C A120U A145C C169G U176G]  0.00186
3. GUGCCUUGCGCCGGGAAACCACGCAAGGGAUGGUGUCAAAUUCGGCGAAACCUAAGCGCCCGCCCGGGCGUAUGGCAACGCUGAGCCAAGCUUCGGCGCCUGCGCCGAUGCAGGUGUAGUGACUAGACGGCACCCACCUAAGGCCAACGCUAUGGUGAAGGCAUAGUCGAGGGAGAGGCGAAAGUCACACAAACCGG [C82U A111C A120U A145C C169G U176A]  0.00206
4. GUGCCUUGCGCCGGGAAACCACGCAAGGGAUGGUGUCAAAUUCGGCGAAACCUAAGCGCCCGCCCGGGCGUAUGGCAACGCUGAGCCAAGCUUCGGCGCCUGCGCCGAUGCAGGUGUAGUGACUAGACGGCACCCACCUAAGGCCAACGCUAUGGUGAAGGCAUAGUCGAGGGAGCGGCGAAAGUCACACAAACCGG [C82U A111C A120U A145C C169G U176C]  0.00215
5. GUGCCUUGCGCCGGGAAACCACGCAAGGGAUGGUGUCAAAUUCGGCGAAACCUAAGCGCCCGCCCGGGCGUAUGGCAACGCUGAGCCAAGCUUCGGCGCCUGCGCCGAUGCAGGUGUAGUGACUAGACGGCACCCACCUAAGGCCAACGUUAUGGUGAAGGCAUAGUCUAGGGAGGGGCGAAAGUCACACAAACCGG [C82U A111C A120U A145C C150U C169U U176G]  0.00224
6. GUGCCUUGCGCCGGGAAACCACGCAAGGGAUGGUGUCAAAUUCGGCGAAACCUAAGCGCCCGCCCGGGCGUAUGGCAACGCUGAGCCAAGCUUCGGCGCCUGCGCCGAUGCAGGUGUAGUGACUAGACGGCACCCACCUAAGGCCAACGCUAUGGUGAAGGCAUAGUCAAGGGAGUGGCGAAAGUCACACAAACCGG [C82U A111C A120U A145C C169A]  0.00236
7. GUGCCUUGCGCCGGGAAACCACGCAAGGGAUGGUGUCAAAUUCGGCGAAACCUAAGCGCCCGCCCGGGCGUAUGGCAACGCUGAGCCAAGCUUCGGCGCCUGCGCCGAUGCAGGUGUAGUGACUAGACGGCACCCACCUAAGGCCAACGCUAUGGUGAAGGCAUAGUCAAGGGAGAGGCGAAAGUCACACAAACCGG [C82U A111C A120U A145C C169A U176A]  0.00241
8. GUGCCUUGCGCCGGGAAACCACGCAAGGGAUGGUGUCAAAUUCGGCGAAACCUAAGCGCCCGCCCGGGCGUAUGGCAACGCUGAGCCAAGCUUCGGCGCCUGCGCCGAUGCAGGUGUAGUGACUAGACGGCACCCACCUAAGGCCAACGCUAUGGUGAAGGCAUAGUCAAGGGAGCGGCGAAAGUCACACAAACCGG [C82U A111C A120U A145C C169A U176C]  0.00244
9. GUGCCUUGCGCCGGGAAACCACGCAAGGGAUGGUGUCAAAUUCGGCGAAACCUAAGCGCCCGCCCGGGCGUAUGGCAACGCUGAGCCAAGCUUCGGCGCCUGCGCCGAUGCAGGUGUAGUGACUAGACGGCACCCACCUAAGGCCAACGUUAUGGUGAAGGCAUAGUCUAGGGAGCGGCGAAAGUCACACAAACCGG [C82U A111C A120U A145C C150U C169U U176C]  0.00255
10. GUGCCUUGCGCCGGGAAACCACGCAAGGGAUGGUGUCAAAUUCGGCGAAACCUAAGCGCCCGCCCGGGCGUAUGGCAACGCUGAGCCAAGCUUCGGCGCCUGCGCCGAUGCAGGUGUAGUGACUAGACGGCACCCACCUAAGGCCAACGUUAUGGUGAAGGCAUAGUCCAGGGAGGGGCGAAAGUCACACAAACCGG [C82U A111C A120U A145C C150U U176G]  0.0029
11. GUGCCUUGCGCCGGGAAACCACGCAAGGGAUGGUGUCAAAUUCGGCGAAACCUAAGCGCCCGCCCGGGCGUAUGGCAACGCUGAGCCAAGCUUCGGCGCCUGCGCCGAUGCAGGUGUAGUGACUAGACGGCACCCACCUAAGGCCAACGCUAUGGUGAAGGCAUAGUCGAGGGAGUGGCGAAAGUCACACAAACCGG [C82U A111C A120U A145C C169G]  0.00298
12. GUGCCUUGCGCCGGGAAACCACGCAAGGGAUGGUGUCAAAUUCGGCGAAACCUAAGCGCCCGCCCGGGCGUAUGGCAACGCUGAGCCAAGCUUCGGCGCCUGCGCCGAUGCAGGUGUAGUGACUAGACGGCACCCACCUAAGGCCAACGUUAUGGUGAAGGCAUAGUCUAGGGAGAGGCGAAAGUCACACAAACCGG [C82U A111C A120U A145C C150U C169U U176A]  0.00314
13. GUGCCUUGCGCCGGGAAACCACGCAAGGGAUGGUGUCAAAUUCGGCGAAACCUAAGCGCCCGCCCGGGCGUAUGGCAACGCUGAGCCAAGCUUCGGCGCCUGCGCCGAUGCAGGUGUAGUGACUAGACGGCACCCACCUAAGGCCAACGUUAUGGUGAAGGCAUAGUCUAGGGAGUGGCGAAAGUCACACAAACCGG [C82U A111C A120U A145C C150U C169U]  0.00319
14. GUGCCUUGCGCCGGGAAACCACGCAAGGGAUGGUGUCAAAUUCGGCGAAACCUAAGCGCCCGCCCGGGCGUAUGGCAACGCUGAGCCAAGCUUCGGCGCCUGCGCCGAUGCAGGUGUAGUGACUAGACGGCACCCACCUAAGGCCAACGUUAUGGUGAAGGCAUAGUCCAGGGAGAGGCGAAAGUCACACAAACCGG [C82U A111C A120U A145C C150U U176A]  0.00424
15. GUGCCUUGCGCCGGGAAACCACGCAAGGGAUGGUGUCAAAUUCGGCGAAACCUAAGCGCCCGCCCGGGCGUAUGGCAACGCUGAGCCAAGCUUCGGCGCCUGCGCCGAUGCAGGUGUAGUGACUAGACGGCACCCACCUAAGGCCAACGUUAUGGUGAAGGCAUAGUCCAGGGAGCGGCGAAAGUCACACAAACCGG [C82U A111C A120U A145C C150U U176C]  0.00591
